Several values for one entry are separate records, joined by “and”; a condition that tells them apart may be missing. Identical values can stand only once.
What was measured:
[1] = molecular target: recombinant low-density lipoprotein receptor-related protein 1 (LRP-1) Cluster IV; experiment: SPR; Biacore T200, 25°C, HBS-EP+ with 8 mM CaCl2; LRP-1 (approx. 1300 RU), ASGR1 (approx. 1500 RU) and MRC1 (approx. 13,000 RU) amine-coupled to parallel flow cells of CM5; Metalyse (88, 53, 32 μg/mL) and Mingfule (53, 32, 19 μg/mL) injected at 30 μL/min for 240 s, 150 s dissociation; sensorgram comparison gives a similarity score
[2] = molecular target: asialoglycoprotein receptor 1 (ASGR1, P01) (UniProt P07306); experiment: as above
[3] = molecular target: mannose receptor C, type 1 (MRC1) (UniProt P22897); experiment: as above
[4] = molecular target: fibrin (immobilised human plasma fibrinogen cross-linked on the chip with thrombin and coagulation factor XIII) (human) (UniProt P02671); experiment: SPR; Biacore T200, 25°C, HBS-EP+; fibrinogen amine-coupled to CM5 (aim 12,000 RU) and cross-linked with thrombin and factor XIII; tenecteplase injected at 2, 3 and 4 μg/mL, 5 μL/min, 120 s contact and 120 s dissociation; sensorgram comparison against a corridor (average ± 3 SD, normalised) of three Metalyse lots gives a similarity score
Sequence of UniProt P02671 (P02671 36-866, chain 1 of 3): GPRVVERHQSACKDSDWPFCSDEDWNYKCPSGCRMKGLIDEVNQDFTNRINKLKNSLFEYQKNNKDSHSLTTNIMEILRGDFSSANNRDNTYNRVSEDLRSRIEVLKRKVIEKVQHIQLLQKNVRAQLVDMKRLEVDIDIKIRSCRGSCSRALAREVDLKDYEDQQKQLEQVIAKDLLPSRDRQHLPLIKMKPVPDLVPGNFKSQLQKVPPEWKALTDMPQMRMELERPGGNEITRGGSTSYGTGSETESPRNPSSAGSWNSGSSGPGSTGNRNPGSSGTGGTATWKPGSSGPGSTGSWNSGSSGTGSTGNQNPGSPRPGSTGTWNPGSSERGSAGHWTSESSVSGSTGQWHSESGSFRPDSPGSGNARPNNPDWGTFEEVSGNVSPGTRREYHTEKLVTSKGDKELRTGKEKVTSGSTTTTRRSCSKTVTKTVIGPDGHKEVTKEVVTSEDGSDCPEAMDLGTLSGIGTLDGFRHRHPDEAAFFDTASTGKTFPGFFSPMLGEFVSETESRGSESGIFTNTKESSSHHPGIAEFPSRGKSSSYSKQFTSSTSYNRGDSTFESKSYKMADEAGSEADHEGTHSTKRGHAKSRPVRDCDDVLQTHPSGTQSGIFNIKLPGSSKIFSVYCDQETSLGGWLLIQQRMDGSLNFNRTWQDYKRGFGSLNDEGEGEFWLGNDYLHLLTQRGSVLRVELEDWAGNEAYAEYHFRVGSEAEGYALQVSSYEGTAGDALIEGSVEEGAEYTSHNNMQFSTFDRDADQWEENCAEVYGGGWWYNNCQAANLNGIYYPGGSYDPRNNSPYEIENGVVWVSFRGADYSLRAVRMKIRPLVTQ
Sequence of UniProt P02671 (P02675 45-491, chain 2 of 3, further chain): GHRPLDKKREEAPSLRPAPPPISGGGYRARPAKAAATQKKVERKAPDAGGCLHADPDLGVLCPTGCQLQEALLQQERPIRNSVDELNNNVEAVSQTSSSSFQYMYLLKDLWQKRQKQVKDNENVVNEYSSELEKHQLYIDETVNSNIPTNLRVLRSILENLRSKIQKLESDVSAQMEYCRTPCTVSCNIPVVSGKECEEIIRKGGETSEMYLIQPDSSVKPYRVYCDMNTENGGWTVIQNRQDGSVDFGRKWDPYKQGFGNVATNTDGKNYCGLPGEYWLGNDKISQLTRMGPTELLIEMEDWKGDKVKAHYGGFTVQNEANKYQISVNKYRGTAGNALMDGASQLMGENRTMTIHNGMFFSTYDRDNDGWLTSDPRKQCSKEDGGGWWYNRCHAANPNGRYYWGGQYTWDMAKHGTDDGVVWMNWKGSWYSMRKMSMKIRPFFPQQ
Sequence of UniProt P02671 (P02679 27-453, chain 3 of 3, further chain): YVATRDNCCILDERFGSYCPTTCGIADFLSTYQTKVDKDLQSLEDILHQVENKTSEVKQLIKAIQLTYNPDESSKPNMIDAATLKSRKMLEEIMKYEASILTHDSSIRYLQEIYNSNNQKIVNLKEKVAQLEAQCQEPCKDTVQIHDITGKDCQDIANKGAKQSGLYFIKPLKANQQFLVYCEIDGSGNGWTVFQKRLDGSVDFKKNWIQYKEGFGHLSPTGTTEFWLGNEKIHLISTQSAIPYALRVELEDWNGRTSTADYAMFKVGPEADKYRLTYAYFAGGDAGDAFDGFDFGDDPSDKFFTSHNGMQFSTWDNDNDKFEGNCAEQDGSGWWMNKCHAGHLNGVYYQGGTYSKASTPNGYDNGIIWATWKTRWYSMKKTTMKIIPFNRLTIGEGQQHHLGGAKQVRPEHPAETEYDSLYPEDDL

Sequence of UniProt P22897 (P22897 19-1389): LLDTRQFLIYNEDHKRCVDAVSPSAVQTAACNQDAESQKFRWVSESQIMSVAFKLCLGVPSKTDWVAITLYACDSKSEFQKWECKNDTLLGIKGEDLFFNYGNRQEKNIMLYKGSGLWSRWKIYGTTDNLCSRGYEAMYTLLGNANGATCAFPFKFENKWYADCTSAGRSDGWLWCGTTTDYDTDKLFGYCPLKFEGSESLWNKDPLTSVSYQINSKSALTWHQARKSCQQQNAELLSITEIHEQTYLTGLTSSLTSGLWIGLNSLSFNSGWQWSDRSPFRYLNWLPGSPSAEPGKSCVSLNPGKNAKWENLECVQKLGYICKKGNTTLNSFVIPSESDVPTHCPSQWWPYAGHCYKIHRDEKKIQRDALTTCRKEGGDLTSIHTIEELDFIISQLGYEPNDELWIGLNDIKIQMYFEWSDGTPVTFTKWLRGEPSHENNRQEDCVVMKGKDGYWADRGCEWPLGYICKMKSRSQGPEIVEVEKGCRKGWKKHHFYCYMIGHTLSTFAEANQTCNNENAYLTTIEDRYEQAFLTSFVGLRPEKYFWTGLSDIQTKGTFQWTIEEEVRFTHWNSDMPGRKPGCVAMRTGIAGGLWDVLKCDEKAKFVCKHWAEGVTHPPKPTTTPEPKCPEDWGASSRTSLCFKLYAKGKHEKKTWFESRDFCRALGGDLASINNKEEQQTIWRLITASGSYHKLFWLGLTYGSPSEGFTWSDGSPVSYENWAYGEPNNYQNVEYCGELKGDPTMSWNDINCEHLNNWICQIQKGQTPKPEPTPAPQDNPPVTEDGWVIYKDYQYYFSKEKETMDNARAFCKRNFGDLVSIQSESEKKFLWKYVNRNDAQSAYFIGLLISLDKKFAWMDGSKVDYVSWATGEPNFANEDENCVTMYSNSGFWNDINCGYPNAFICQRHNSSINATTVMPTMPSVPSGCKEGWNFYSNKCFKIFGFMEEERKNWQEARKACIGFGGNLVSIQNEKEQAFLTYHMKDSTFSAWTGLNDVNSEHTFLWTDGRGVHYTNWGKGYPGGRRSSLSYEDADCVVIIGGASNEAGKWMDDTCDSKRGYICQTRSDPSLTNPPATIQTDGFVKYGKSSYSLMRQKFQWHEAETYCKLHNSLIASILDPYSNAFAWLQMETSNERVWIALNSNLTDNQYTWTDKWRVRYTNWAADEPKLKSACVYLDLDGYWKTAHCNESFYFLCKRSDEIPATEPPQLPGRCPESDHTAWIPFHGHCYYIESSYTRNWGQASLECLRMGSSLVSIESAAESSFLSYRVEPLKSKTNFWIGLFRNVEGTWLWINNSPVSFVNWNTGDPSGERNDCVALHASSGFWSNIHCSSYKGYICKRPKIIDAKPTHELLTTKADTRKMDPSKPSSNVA

## tenecteplase copy Mingfule 16 mg/vial (CSPC Recomgen Pharmaceutical, Guangzhou, Co., Ltd.) (enzyme)
[1]
  similarity score to Metalyse (SPR sensorgram comparison): 30% and 17% and 25%
[2]
  similarity score to Metalyse (SPR sensorgram comparison): 5% and 6% and 9%
[3]
  similarity score to Metalyse (SPR sensorgram comparison): 8% and 9% and 10%
[4]
  similarity score to Metalyse (SPR sensorgram comparison): 53% and 37% and 46%

From paper PMC11695638
